Measurements as given in publication PMC5970177.

Target: αvβ3 integrin (human (endogenous in U87MG)) (UniProt P06756)
Chain of UniProt P06756 (P06756 31-1048, chain 1 of 2): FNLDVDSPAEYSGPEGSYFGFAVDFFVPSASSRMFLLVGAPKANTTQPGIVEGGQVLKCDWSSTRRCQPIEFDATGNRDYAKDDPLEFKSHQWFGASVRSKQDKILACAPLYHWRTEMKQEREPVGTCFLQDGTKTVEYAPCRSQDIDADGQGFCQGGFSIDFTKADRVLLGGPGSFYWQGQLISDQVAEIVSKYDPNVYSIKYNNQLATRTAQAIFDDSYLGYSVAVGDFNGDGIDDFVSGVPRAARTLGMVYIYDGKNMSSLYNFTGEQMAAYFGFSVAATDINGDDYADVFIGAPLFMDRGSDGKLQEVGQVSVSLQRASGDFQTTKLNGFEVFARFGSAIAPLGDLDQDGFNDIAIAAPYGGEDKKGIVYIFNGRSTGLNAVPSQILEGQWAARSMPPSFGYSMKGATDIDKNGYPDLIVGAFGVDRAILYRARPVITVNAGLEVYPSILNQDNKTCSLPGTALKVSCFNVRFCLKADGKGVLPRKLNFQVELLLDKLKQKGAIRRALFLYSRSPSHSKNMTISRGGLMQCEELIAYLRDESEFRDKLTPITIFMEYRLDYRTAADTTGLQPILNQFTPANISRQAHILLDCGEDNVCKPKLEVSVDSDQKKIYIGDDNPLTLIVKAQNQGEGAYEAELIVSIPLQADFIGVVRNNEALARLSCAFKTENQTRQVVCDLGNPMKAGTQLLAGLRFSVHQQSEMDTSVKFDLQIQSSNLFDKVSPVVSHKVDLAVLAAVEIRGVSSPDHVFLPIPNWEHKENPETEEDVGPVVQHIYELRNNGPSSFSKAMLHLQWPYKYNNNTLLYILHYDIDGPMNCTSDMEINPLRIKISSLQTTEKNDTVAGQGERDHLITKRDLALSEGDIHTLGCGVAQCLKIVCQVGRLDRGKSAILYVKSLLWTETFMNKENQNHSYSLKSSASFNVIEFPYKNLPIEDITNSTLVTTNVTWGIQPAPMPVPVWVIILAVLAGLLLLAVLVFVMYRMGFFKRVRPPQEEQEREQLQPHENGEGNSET
Chain of UniProt P06756 (P05106 27-788, chain 2 of 2, further chain): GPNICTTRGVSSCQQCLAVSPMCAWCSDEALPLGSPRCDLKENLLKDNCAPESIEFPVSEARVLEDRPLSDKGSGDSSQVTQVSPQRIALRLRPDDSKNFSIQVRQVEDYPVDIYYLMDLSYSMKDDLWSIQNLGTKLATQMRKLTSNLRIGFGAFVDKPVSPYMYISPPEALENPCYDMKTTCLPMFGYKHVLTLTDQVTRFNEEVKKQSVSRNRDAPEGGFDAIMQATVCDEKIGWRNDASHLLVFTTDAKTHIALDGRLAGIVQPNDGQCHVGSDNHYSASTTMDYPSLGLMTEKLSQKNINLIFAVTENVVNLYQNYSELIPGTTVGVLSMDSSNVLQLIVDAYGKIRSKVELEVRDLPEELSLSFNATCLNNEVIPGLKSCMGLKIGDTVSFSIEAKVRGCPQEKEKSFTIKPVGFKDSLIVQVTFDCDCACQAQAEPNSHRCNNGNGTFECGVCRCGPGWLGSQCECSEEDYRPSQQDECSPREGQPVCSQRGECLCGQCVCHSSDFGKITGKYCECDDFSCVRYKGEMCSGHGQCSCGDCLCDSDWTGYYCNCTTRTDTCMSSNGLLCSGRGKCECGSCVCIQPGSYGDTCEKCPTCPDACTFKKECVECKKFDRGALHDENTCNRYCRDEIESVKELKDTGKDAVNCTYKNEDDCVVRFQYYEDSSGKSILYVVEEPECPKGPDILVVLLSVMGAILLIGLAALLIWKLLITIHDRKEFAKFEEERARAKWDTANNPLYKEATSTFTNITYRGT

cellular uptake in U87MG cells at 200 nM 700DX (fluorescence intensity after 7 h), fold over cells incubated with 700DX-PEG-cRGD: 2.5 times
cellular uptake in U87MG cells at 200 nM 700DX (fluorescence intensity after 7 h), fold over cells incubated with free 700DX: 4.5 times
Substance: 700DX-PEG-PGlu-cRGD15 (peptide)
